We go through 2 molecules from US7271245B2, “Methods and compositions for inhibition of metastasis” (The Scripps Research Institute, priority 2004, dated 2007).

This experiment deals with BMS breast cancer cells. Briefly: Tumor cell arrest during blood flow. Format: cell-based. The note with it: 3 μM scFv, human blood, collagen I matrix, shear rate 50 s^−1. How it is done:
FIGS. 3A, 3B, 3C, 3D, 3E. scFv Bc-12 and Bc-15 inhibit αvβ3 mediated adhesive breast cancer cell functions. (A) Adhesion of BMS human breast cancer cells to fibrinogen (Fg), vitronectin (VN) or type I collagen (Col I) in the absence or presence of 3 μM Bc-12, Bc-15 or their RGE mutants Mut-12, Mut-15, compared to 200 μM GRGDSPK peptide (SEQ ID NO: 11). Protein coating concentrations: 10 μg/ml (VN, Col I) or 20 μg/ml (Fg). Adhesion time: 30 min at 37° C. (B) Effect of scFvs on haptotactic BMS cell migration toward a fibrinogen substrate (16 hrs at 37° C. in transwell chambers with or without 2 μM Bc-12, Bc-15 or their RGE mutants Mut-12 or Mut-15, compared to 200 μM GRGDSPK peptide) (SEQ ID NO: 11). (C) Effect of scFvs on breast cancer cell arrest during blood flow. Metastatic BMS cells, labeled with hydroethidine, were suspended in human blood (anticoagulated with 50 nM PPACK) and perfused over a collagen I matrix at a venous wall shear rate of 50 s^−1. Under these conditions, breast cancer cells arrest by αvβ3 mediated binding to adherent, thrombus forming platelets. Tumor cell adhesion was quantified by image acquisition at 30 predefined positions during blood flow. Left: representative images of platelet signal (thrombi, green fluorescence) and tumor cell signal (red fluorescence) at identical x,y positions. […]
Tumor cell arrest during bloodflow. Breast cancer cell arrest during blood flow and interaction with platelets was measured as described. […] Adhesive events and cell interactions were visualized and recorded by fluorescence video microscopy and quantified by image acquisition at 30 predefined positions followed by computerized image analysis (MetaMorph, Universal Imaging). Tumor cells were stained with hydroethidine (red fluorescence) (20 μg/ml, 30 min, 37° C.), washed, and mixed with blood containing 10 μM mepacrine (green fluorescence). Blood cells, tumor cells, and platelets acquired green fluorescence and were visualized at 488/515 nm (excitation/emission). Tumor cells were identified by their unique red fluorescence at 543/590 nm. […]

B1: Bc-12: patient derived human scFv antibody against activated αvβ3 with RGD motif in CDR-H3; cDNA ATCC PTA-6303 (protein)
scFv: MAQVQLVQSGAEVKKPGASVKVSCKASGYTFSNYGITWVRQAPGQGLEWMGWINNGNTHYAQKFQGRVTMTTDTSTSTAYMELRSLRSDDTAVYYCARDPRGDDEPYWGQGTLVTVSSGGGGSGGGGSGGGGSEIVLTQSPLSLPVTLGQPASISCRSSQNLVYSDGNTYLSWFQQRPGQSPRRLIYKVSNRDSGVPDRFSGSGSGTDFTLKISRVEAEDIGVYYCMQGTHWPPRTFGQGTKVEIKRGLGGLVDYKDDDDK
B1: the “breast cancer cell arrest during blood flow” value is on record as “efficiently inhibited”.

B2: Mut-12: RGE containing mutant version of scFv Bc-12 (protein)
chain: MAQVQLVQSGAEVKKPGASVKVSCKASGYTFSNYGITWVRQAPGQGLEWMGWINNGNTHYAQKFQGRVTMTTDTSTSTAYMELRSLRSDDTAVYYCARDPRGEDEPYWGQGTLVTVSSGGGGSGGGGSGGGGSEIVLTQSPLSLPVTLGQPASISCRSSQNLVYSDGNTYLSWFQQRPGQSPRRLIYKVSNRDSGVPDRFSGSGSGTDFTLKISRVEAEDIGVYYCMQGTHWPPRTFGQGTKVEIKRGLGGLVDYKDDDDK
With B2, the “breast cancer cell arrest during blood flow” value is on record as “no effect”.
